Measured values: the nanobody polyreactivity screen of Harvey et al. (2022)

Experiment: yeast display, Sf9 membrane polyspecificity reagent, FACS + sequencing; frameworks hold sequencing errors
In short: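 Nanobodies came from a synthetic yeast display library in Saccharomyces cerevisiae BJ5465, induced with galactose for 36–48 hours and stained for 1 hour at 4 °C with 10% biotinylated, detergent-solubilized Sf9 membrane reagent. Cells were enriched on streptavidin microbeads and then FACS-sorted, with low and high (top ~1%) gates set on anti-HA fluorescence for expression and streptavidin fluorescence for reagent binding. Each polyreactivity label reflects the gate a clone came from. Genes were amplified by colony PCR, sequenced by MiSeq 2 × 250 and filtered by CDR length.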

Sequence | polyreactivity (PSR sort gate)
QVQLVESGGGLVQAGGSLRLSCAASGITIGSNVMGWYRQAPGKERELVAAISQSGGRTYYADSVKGRFTISRDNAKNTVYLQMNSLKPEYTAVYYCAKRQRSFYGRPMGDYWGQGTQVTVSS | high polyreactivity
QVQLVESGGGLVQAGGSLRLSCAASGITIKRYDMGWYRQAPGKEREFVATISQSGTSTYYADSVKGRFTISRDNAKNTVYLQMNSLKPEDTAVYYCAAYYIGYWYGYYSWGQGTQVTVSS | low polyreactivity
QVQLVESGGGLVQAGGSLRLSCAASGITIPYNAMGWYRQAPGKERELVAVISWSGGSTYYADSVKGRFTISRDNAKNTVYLQMNRQKPEDTAFYYCAAEPGGGYYYWGQGTKVTVSS | low polyreactivity
QVQLVESGGGLVQAGGSLRLSCAASGITIRLSALGGYRQAPGNERELVAAITSGGSTYADSVKGRFTISRDNAKNTVYLQMNSLKPEDTAVYYCNAEALVNGGYDYWGQGTQVTVSS | high polyreactivity
QVQLVESGGGLVQAGGSLRLSCAASGITIRRYAMGWYIQAPGKERELVAAITTGGGGTYYADSVKGRFTISRDNAKNTVYLQMNSLKPEDTAVYYCAATYWRTYPSYYWGQGTQVTVSS | high polyreactivity
QVQLVESGGGLVQAGGSLRLSCAASGITISVNDMGWYRQAPGKERELVAAISSGDSTNYADSVKGRFTISRDNAKNTVYLQMNSLKPEDTAVSYCAALEGSLTGWQTYDYWGQGTQVTVSS | low polyreactivity
QVQLVESGGGLVQAGGSLRLSCAASGITIVNYVMGWYRQPPGKERELVAAISIGGGTYYADSVKGRFTISRDNAKNTVYLQMNSLKPEDTAVYYWNASYGGLSFYIGVYDTGYDYWGQGTQVTVSS | low polyreactivity
QVQLVESGGGLVQAGGSLRLSCAASGITIWNNAMGWSRQAPGKESELVATISSNGGRTYYADSVKGRFTISRDNAKNTVYLQMNSLKPEDTAVYYCNAARRAYGYNYWGQGTQVTVSS | low polyreactivity
QVQLVESGGGLVQAGGSLRLSCAASGITLARNAMGWYRQAPGKERELVASITWSGGTTYYADSVKGRFTISRDNAKNTVYLQMNSLKPEDTAVYYCAASAKLHFYRTYRYNYWGQGTQVTVSS | high polyreactivity
QVQLVESGGGLVQAGGSLRLSCAASGITLAYNVMGWYRQAPGKERELVAGITRSGGSTYYADSVKGRFTISRDNAKNTVYLQMNSLKPEDTAVYYCAAGFTYLNYTPWYRFNYWGQGTQVTVSS | high polyreactivity
QVQLVESGGGLVQAGGSLRLSCAASGITLDNYVMGWYRQAPGKERELVAAISRTSGRTYYADSVKGRFTISRDNAKNTVYLQMNSLKPEDTAVYYCAAETGYTIRYDYWGQGTQVTVSS | high polyreactivity
QVQLVESGGGLVQAGGSLRLSCAASGITLGTNAMGWYRQAPGKERELVAAIRRSGGSTYYADSVKGRFTISRDNAKNTVYLQMNSLKPEDTAVYYCAAVVSVNMYWGQGTQVTVSS | low polyreactivity
QVQLVESGGGLVQAGGSLRLSCAASGITLGTYAMGWSRQAPGKERELVAGISTSGGSTYYADSVKGPFTISRDNAKNTVYLQMNSLKPEETAVYYCAKRRYGSGYYRYRGYDYWGQGTQVTVSS | high polyreactivity
QVQLVESGGGLVQAGGSLRLSCAASGITLGYYVMGWYRQAPGKERELVAAISSSGGRTYYADSVKGRFTISRDTAKNTVYLQMNSLKPEDTAVYYCAADLGRGIYDYWGQGTQVTVSS | low polyreactivity
QVQLVESGGGLVQAGGSLRLSCAASGITLTNNAMGWSRHAPGKERELVAAITRSGGSTYYADSVKGRFTISRDNAKNTVYLLMNSLKPEVTAVYCAARWYSYSGSIRSYDYWGQGTQVTVSS | low polyreactivity
QVQLVESGGGLVQAGGSLRLSCAASGITLVYYVMGWYRQAPGKERELVAAISSGGITYYADSVKGRFTISRDNAKNTVYLQMNSLKPEDTAVYYCAAESRQYVRTYGYWGQGTQVTVSS | low polyreactivity
QVQLVESGGGLVQAGGSLRLSCAASGITLYDNAMGWYRQEPGKERELVAAINVNDVSTYYADSVKGRFTISRDNAKNTVYLQMNSLKPEDTAVYYCAADSLYYGIGYWVVRYDYWGQGTQVTVSS | low polyreactivity
QVQLVESGGGLVQAGGSLRLSCAASGITLYGYTMGWYRQAPGKERELVAGISRGGSTYYADSVKGRFTISRYNEKNTVFLQLNSLKPEDSEVYYCAAAGWYRGDYWGQGTQVTVSS | high polyreactivity
QVQLVESGGGLVQAGGSLRLSCAASGITSRRYAMGWYRKAPGKEREFVAAIRTICGSTYYADSVKGRFTISRDNAKNTVYLQMNSLKPEDTAVYYCAARYFLSRSGASHLDSWGQGTQVTVSS | high polyreactivity
QVQLVESGGGLVQAGGSLRLSCAASGITSWYYAMGWYRQAPGKERELVAAITSDGRTNYADSVKGRFTISRDNAKNTVYLQMNSLKPEDTAVYYCAAARRVGVSHYRYGYWGQGTQVTVSS | high polyreactivity

Sequence | polyreactivity (PSR sort gate)
QVQLVESGGGLVQAGGSLRLSCAASGITVGDYAMGWYRQAPGKEREVVAAISYTGGSTYYADSVKGRFTISRDNAQNTGYLQMNSLKPEDTAVYYCAADGYRDYDSWGQGTQVTVSS | high polyreactivity
QVQLVESGGGLVQAGGSLRLSCAASGITVYLYAMGWYRQAPGKERELVAAISSSGGSTYYADSVKGRFTISRDNAKNTVYLQMNSLKPEDTAVYYCAAVYYTSVTIYDYWGQGTQVTVSS | high polyreactivity
QVQLVESGGGLVQAGGSLRLSCAASGITYCANTMGWYRQAPGKERELVADITVTGDGTYYADSVKGRFTISRDNAKNTVYLQMNSLKPEDTAVYYCAADFWLVSFQWDFEYDYWGQGTQVTVSS | low polyreactivity
QVQLVESGGGLVQAGGSLRLSCAASGITYPGYAMGWYRQAPGKERELVAVIRKSGTSTYYADSVKGRFTISRDNAKNTVYLQMNSLKPEDTAVYYCAAGGPSTLDDYWGQGTQVTVSS | low polyreactivity
QVQLVESGGGLVQAGGSLRLSCAASGITYSGNAMRWYRQAPAKERELVAAISGRGGSTYYADSVKGRFTISRDNAKNTVYLLMNSLKPDDTAVYYCNADVYPYKLALPAGMGYWGQGTQVTVSS | high polyreactivity
QVQLVESGGGLVQAGGSLRLSCAASGLIFADYTMGWYRQAPGKERELVAVITDGDSTYYADSVKGRFTISLDNAKNTVYLQMNTLKPEDTAVSYCAAESAGSFLDYYWAYGYWGQGTQVTVSS | low polyreactivity
QVQLVESGGGLVQAGGSLRLSCAASGLIFAGYAKGWYRQAPGKERELVAAISTSGGRTYYADSVKGRFTISRDNAKNTVYLQMNSLKPEDTAVYYCAAYPVHGKTQELAKEDYWGQGTQVTVSS | high polyreactivity
QVQLVESGGGLVQAGGSLRLSCAASGLIFAKYAMGWYRQAPGKERELVAAITSSGAGTYYADSVKGRFTISRDNAKNTVYLQMNCLKPEDTAVYYCATGPDPKYDYWGQGTQVTVSS | high polyreactivity
QVQLVESGGGLVQAGGSLRLSCAASGLIFAKYAMGWYRQAPGKERELVAGITSGGGTYYADSVKGRFTISRDNAKNTVYLQMNSLKPEDTAVYYCAVGREYFRWIRYDYDYWGQGTQVTVSS | low polyreactivity
QVQLVESGGGLVQAGGSLRLSCAASGLIFANNTMGWYRQAPGKERELVAAISATGDGNTYYADSVKGRFTISRDNAKNTVYLQMNSLKPEDTAVYYCNRLPQYALPYRHNGYWGQGTQVTVSS | low polyreactivity
QVQLVESGGGLVQAGGSLRLSCAASGLIFARNVMGWYRQAPGKERELVAAISWSSGSTYYADSVKGRFTISRDNAKNTVSLQMNTLKQEDTAVYYCAARKIKSSQYFPTLYYYWGQGTQVTVSS | high polyreactivity
QVQLVESGGGLVQAGGSLRLSCAASGLIFASYAMGWYRQAPGKERELVATITVGGSTYYADSVKGRFTISRDNPKNTVYLQMISLKPEDTAVYYCNVGESVPWYEWGALWFSFDYWGQGTQVSVSS | high polyreactivity
QVQLVESGGGLVQAGGSLRLSCAASGLIFATYAMGWSRQAPGKERELVAAISYRGSRTYYADSVKGRFTISRDNAMTTVYLQMNILKPEDTGVYYCAAVYRTYGIGPNNYWGQGTQVTVSS | high polyreactivity
QVQLVESGGGLVQAGGSLRLSCAASGLIFDKYAMGWYRQAPGKERELVAAITRSSGTTYYADSVKGRFTISRDNAKNTVYLQLNSLKPEDTAVYYCAARFIWGYWGVGYYYWGLGTQVTVSS | low polyreactivity
QVQLVESGGGLVQAGGSLRLSCAASGLIFDRYPMGWYRQAPGKERELVAAINRSGGTTYYADSVKGRFTISRDNAKNTVYLQMNSLKPEDTAVYYCAARWQRYRSGTGDYWGQGTQVTVSS | high polyreactivity
QVQLVESGGGLVQAGGSLRLSCAASGLIFDWYAMGWYRPAPGKERELVADISNSGGSTNYADSVKGRFTISRDSAFNTVYLQMNSLKPEDTEVYYCAVDYYYPTLTIGYYYWGQVTQVTVSS | low polyreactivity
QVQLVESGGGLVQAGGSLRLSCAASGLIFEGYAMGWYRQAPGKERELVAAISSAGSTYYADSVKGRFTISRDNAKNTVYLQMNSLKPEDTAVYYCNARRRRLVSYYYWGQGTQVTVSS | high polyreactivity
QVQLVESGGGLVQAGGSLRLSCAASGLIFENNAMGWYRQAPGKERELVAAITKGGGSTYYADSVKGRFTISRDNAMNTVYLQMNSLKPEDTAVYYCAKVHPWHRYWQYWYDYWGQGTQVTVSS | low polyreactivity
QVQLVESGGGLVQAGGSLRLSCAASGLIFFYYAMGWYRQAPGKERELVATINLNGGSTYYADSVKGRFTISRDNAKNSVYLQMNSLKPEDTAGYYCAAAGTKYYARYYYWGQGTQVTVSS | high polyreactivity
QVQLVESGGGLVQAGGSLRLSCAASGLIFGFYTMGWYRQAPGKERELVAVISSSGGSTYYADSVKGRFTISRDNAKNTVYLQMNSLKPEDTAVYYCAARAYPVRYRRRDYWGQGTQVTVSS | high polyreactivity
